For three substances, Kd and K0.5 results are on record in publication doi:10.1101/2025.09.08.674988.

The target in data set [1] is FlAsH-labeled NS5B(Δ21)-FlAsH-His (Hepatitis C virus genotype 2a). Nature of the data set: fluorescence polarisation. Background: In fluorescence polarisation assays a small probe gives low polarisation when free and higher when bound to something large.
For data set [2] the target is unchanged. Nature of the data set: fluorescence polarisation. This is another data set of the same source.
The target is the same in data set [3]. Nature of the data set: fluorescence polarisation. This is another data set of the same source.
Data set [4] addresses NS5B(Δ21)-FlAsH-His (Hepatitis C virus genotype 2a). The experiment in a line: dynamic light scattering.
The next data set in a line: dynamic light scattering. To be noted: other: dynamic light scattering.
Data set [5] has as its target FlAsH-labeled NS5B(Δ21)-FlAsH-His (Hepatitis C virus genotype 2a). The experiment in a line: FRAP on a supported lipid bilayer.

pKd: −log10 of the molar value.

By pKd is commonly meant −log10 of the Kd, conventionally taken in molar units. Read a low pKd as a large Kd. In the case of NS5B(Δ21)-FlAsH-His (enzyme), the pKd in data set [1] is 6.25; in data set [2], 6.00; in data set [3], 5.96; in data set [4] it was 6.12.
As for NS5B(Δ21)-FlAsH-His, in the data set “dynamic light scattering”, the K0.5 entry is on record as “K0.5 ∼ 1.5 µM”.
In data set [5], “FlAsH-labeled NS5B(Δ21)-FlAsH-His (enzyme)” gave a pKd of over 8.00.
